This is an account of results in US10570431B2, “Compositions comprising a polypeptide having cellulolytic enhancing activity and a heterocyclic compound and uses thereof” (priority 2013, dated 2020).

Holding throughout (format): biochemical
In data set [1] the test system is Thielavia terrestris GH61E polypeptide. Put plainly: Effect of ascorbic acid on T. terrestris GH61E polypeptide during hydrolysis of AVICEL. The settings on record: ascorbic acid 5 mM, T. terrestris GH61E 0.4 or 2 mg per gram cellulose, 1, 3 and 7 days.
The subject of data set [2] is Talaromyces stipitatus GH61A polypeptide. As to conditions: AVICEL; ascorbic acid 5 mM; T. stipitatus GH61A 0.4 or 2 mg per gram cellulose; 1, 3 and 7 days.
The subject of data set [3] is Trichoderma reesei cellulase composition.
The target of data set [4] is Aspergillus fumigatus GH61B polypeptide (Aspergillus fumigatus, UniProt Q4WP32). Put plainly: Effect of ascorbic acid on A. fumigatus GH61B polypeptide during hydrolysis of AVICEL. As to conditions: ascorbic acid 5 mM, A. fumigatus GH61B 0.4 or 2 mg per gram cellulose, 1, 3 and 7 days.
Chain of Aspergillus fumigatus GH61B polypeptide (Q4WP32 22-250): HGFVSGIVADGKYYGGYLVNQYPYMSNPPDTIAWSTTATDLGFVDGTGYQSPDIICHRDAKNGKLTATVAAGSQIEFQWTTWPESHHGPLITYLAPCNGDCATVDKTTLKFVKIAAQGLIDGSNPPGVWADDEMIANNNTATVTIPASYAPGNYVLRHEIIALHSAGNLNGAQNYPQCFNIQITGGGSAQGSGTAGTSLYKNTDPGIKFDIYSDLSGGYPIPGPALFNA
Data set [5] deals with Trichoderma reesei cellulase composition. The settings on record: for Percent conversion of milled unwashed PCS: GH61 present (0.2 mg/g cellulose); for Percent conversion of milled unwashed PCS / Enhancement of hydrolysis of milled unwashed PCS by the presence of GH61 polypeptide: no heterocyclic compound.
Data set [6] deals with Trichoderma reesei GH61B polypeptide (Trichoderma reesei, UniProt Q7Z9M7). The experiment in a line: Effect of ascorbic acid on T. reesei GH61B polypeptide during hydrolysis of AVICEL. As to conditions: ascorbic acid 5 mM.
Chain of Trichoderma reesei GH61B polypeptide (Q7Z9M7 20-249): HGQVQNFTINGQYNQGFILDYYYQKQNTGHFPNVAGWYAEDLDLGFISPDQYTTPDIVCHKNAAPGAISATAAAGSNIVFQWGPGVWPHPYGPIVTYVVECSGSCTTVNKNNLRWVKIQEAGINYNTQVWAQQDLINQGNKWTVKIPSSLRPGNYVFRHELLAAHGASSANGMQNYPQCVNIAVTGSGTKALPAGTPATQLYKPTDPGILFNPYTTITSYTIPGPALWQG
The subject of data set [7] is Penicillium pinophilum GH61A polypeptide. The settings on record: AVICEL; ascorbic acid 5 mM; P. pinophilum GH61A 0.4 or 2 mg per gram cellulose; 1, 3 and 7 days.
Data set [8] deals with Trichoderma reesei cellulase composition. The experiment in a line: Hydrolysis of AVICEL (microcrystalline cellulose) by the T. reesei cellulase composition, with/without GH61 polypeptide or heterocyclic compound. The settings on record: GH61 polypeptide present (0.4 mg per g cellulose), no heterocyclic compound.

Like-named read-outs stand apart in the source and are kept apart here.

Regarding `O=C1OC(C(O)CO)C(O)=C1O` (stereo not drawn) [ascorbic acid, (1,2-dihydroxyethyl)-3,4-dihydroxyfuran-2(5H)-one], the “GH61 effect in the presence of heterocyclic compound” value in data set [1], in data set [2], in data set [4], in data set [6] (T. reesei GH61B at high level (2 mg per g cellulose)) and in data set [7] was “greater than 1” each time. The “heterocyclic compound effect(+GH61)” value in data set [1], in data set [2], in data set [4], in data set [6] (T. reesei GH61B 2 mg per g cellulose) and in data set [7] was “increased” in each case. For the same molecule, the “heterocyclic compound effect(no GH61)” value was “slightly decreased” in data set [3] (milled washed PCS, compound 5 mM, no GH61, 1, 3 and 7 days); “greater than 1” in data set [5] (milled unwashed PCS, compound 5 mM, cellulase 2 mg per g cellulose, no GH61, 1, 3 and 7 days).

B1: T. aurantiacus GH61A polypeptide: GH61A polypeptide having cellulolytic enhancing activity (SEQ ID NO: 14), recombinantly prepared using Aspergillus oryzae JaL250 as a host (protein, listed as Thermoascus aurantiacus)
chain: MSFSKIIATAGVLASASLVAGHGFVQNIVIDGKYYGGYLVNQYPYMSNPPEVIAWSTTATDLGFVDGTGYQTPDIICHRGAKPGALTAPVSPGGTVELQWTPWPDSHHGPVINYLAPCNGDCSTVDKTQLEFFKIAESGLINDDNPPGIWASDNLIAANNSWTVTIPTTIAPGNYVLRHEIIALHSAQNQDGAQNYPQCINLQVTGGGSDNPAGTLGTALYHDTDPGILINIYQKLSSYIIPGPPLYTG
In the case of B1, the “Enhancement of hydrolysis of milled washed PCS by the presence of GH61 polypeptide” value worked out at 14% in data set [3] (1 day, no heterocyclic compound); 31% in data set [3] (3 days, no heterocyclic compound); 31% in data set [3] (7 days, no heterocyclic compound). Moreover, the “Percent conversion of milled washed PCS” value in data set [3] (day 1, GH61 present (0.4 mg per g cellulose), cellulase 4 mg per g cellulose, no heterocyclic compound, 37±1% in the absence of GH61) is given as 42±1%; in data set [3] (day 1, cellulase 2 mg per g cellulose, GH61 at 10% (w/w) of the cellulase composition, 24±0.7% in the absence of GH61) it was 27±0.8%; in data set [3] (day 1, cellulase 2 mg per g cellulose, GH61 at 25% (w/w) of the cellulase composition, 24±0.7% in the absence of GH61) it was 27±0.8%; in data set [3] (day 1, cellulase 2 mg per g cellulose, GH61 at 50% (w/w) of the cellulase composition, 24±0.7% in the absence of GH61), 27±0.8%; in data set [3] (day 3, GH61 present (0.4 mg per g cellulose), cellulase 4 mg per g cellulose, no heterocyclic compound, 55±1% in the absence of GH61), 72±1%; in data set [3] (day 3, cellulase 2 mg per g cellulose, GH61 at 10% (w/w) of the cellulase composition, 41±2% in the absence of GH61), 55±3%. Besides, the “Percent conversion of milled washed PCS” value in data set [3] (day 3, cellulase 2 mg per g cellulose, GH61 at 25% (w/w) of the cellulase composition, 41±2% in the absence of GH61) was determined as 57±0.5%; in data set [3] (day 3, cellulase 2 mg per g cellulose, GH61 at 50% (w/w) of the cellulase composition, 41±2% in the absence of GH61), 59±2%; in data set [3] (day 7, GH61 present (0.4 mg per g cellulose), cellulase 4 mg per g cellulose, no heterocyclic compound, 67±0.2% in the absence of GH61), 88±2%. Moreover, the “Percent conversion of milled unwashed PCS” value in data set [5] (1 day, cellulase 2 mg per g cellulose, 18.7±0.1% in the absence of GH61) is given as 22.2±0.1%; in data set [5] (3 days, cellulase 2 mg per g cellulose, 28.2±0.3% in the absence of GH61), 34.3±0.3%; in data set [5] (7 days, cellulase 2 mg per g cellulose, 36.9±0.3% in the absence of GH61), 44.0±0.2%. The “Enhancement of hydrolysis of milled unwashed PCS by the presence of GH61 polypeptide” value in data set [5] (1 day) stood at 19%; in data set [5] (3 days) it was 21%; in data set [5] (7 days), 19%. The “Percent conversion of AVICEL” value in data set [8] (1 day, 16±1% in the absence of GH61) stood at 16±1%; in data set [8] (3 days, 31±4% in the absence of GH61) it was 30±4%; in data set [8] (7 days, 45±3% in the absence of GH61), 45±4%.
